Results published in patent US9458437B2, “Neuroprotective peptides that inhibit interaction between palmitoyl acyl transferase zinc-finger DHHC type containing 17 (zD17) and c-jun N-terminal kinase (JNK)” (The University of British Columbia, priority 2011, dated 2016).

Biological target: T1, JNK2 (Rattus norvegicus, UniProt P49186)
T1 construct: JNK is immunoprecipitated from the cell lysate; endogenous in cells; host or cells: rat primary neuronal cultures; JNK2 immunoprecipitated from lysate
Test: kinase assay (KA) on JNK2 immunoprecipitated from cell lysates
Type: cell-based
Conditions: for JNK2 activity normalized to 0 h: NMDA + NIMoE
Procedure: JNK activity was measured with an in vitro kinase assay as described elsewhere (see, for e.g.: Khatlani et al., 2007). Briefly, cell lysates were prepared and JNK was immunoprecipitated with specific antibodies. The immnoprecipitates were then resuspended in 1× kinase buffer (Cell Signaling Technology™) supplemented with 200 μM ATP and 250 μg/ml GST-c-jun (1-89), and incubated at 30° C. for 30 min. Reactions were terminated by the addition of SDS-PAGE sample buffer. Phosphorylated c-jun was resolved by SDS-PAGE and detected with anti-p-c-jun.

In the case of “MTPLMWAAYRTHSVDPTRLL (listed as Homo sapiens) [NIMoE, peptide comprising motif-E of zD17, fused to the cell-membrane transduction domain of HIV-1 Tat for cell experiments]”, the “JNK2 activity normalized to 0 h” value (0.5 h) is reported as 103.7±5.0%, the “JNK2 activity normalized to 0 h” value (1 h) is reported as 90.9±10.9% and the “enhancement of JNK2 activity” value (NMDA, neuronal cultures) is reported as “eliminated the enhancement”.
